Experimental data published in patent US20080160015A1.

Columns and labels:
[1] = biological target: human monoclonal anti-C1 domain of Factor VIII inhibitory antibody RHD5; test: cell-based or functional assay
[2] = biological target: human monoclonal anti-C1 domain of Factor VIII inhibitory antibody RHD5; test: SPR (BIAcore), RHD5 immobilized on CM5, 18B6 infused
[3] = biological target: human monoclonal anti-C1 domain of Factor VIII inhibitory antibody RHD5; test: competition ELISA: 18B6 with RHD5 2 µg/ml, RHD5 binding to coated recFVIII detected
[4] = biological target: human monoclonal anti-C1 domain of Factor VIII inhibitory antibody RHD5; test: competition ELISA: 18B6 at 25 µg/ml with RHD5 2 µg/ml, RHD5 binding to coated recFVIII detected
[5] = biological target: human monoclonal anti-C1 domain of Factor VIII inhibitory antibody RHD5; test: competition ELISA: 18B6 at 50 µg/ml with RHD5 2 µg/ml, RHD5 binding to coated recFVIII detected
[6] = biological target: human monoclonal anti-C1 domain of Factor VIII inhibitory antibody RHD5; test: competition ELISA: 18B6 at 0.39 µg/ml with RHD5 2 µg/ml, RHD5 binding to coated recFVIII detected
[7] = biological target: human monoclonal anti-C1 domain of Factor VIII inhibitory antibody RHD5; test: competition ELISA: 18B6 at 0.78 µg/ml with RHD5 2 µg/ml, RHD5 binding to coated recFVIII detected
[8] = biological target: human monoclonal anti-C1 domain of Factor VIII inhibitory antibody RHD5; test: competition ELISA: 18B6 at 1.56 µg/ml with RHD5 2 µg/ml, RHD5 binding to coated recFVIII detected
[9] = biological target: human monoclonal anti-C1 domain of Factor VIII inhibitory antibody RHD5; test: competition ELISA: 18B6 at 12.5 µg/ml with RHD5 2 µg/ml, RHD5 binding to coated recFVIII detected
[10] = biological target: human monoclonal anti-C1 domain of Factor VIII inhibitory antibody RHD5; test: competition ELISA: 18B6 at 3.12 µg/ml with RHD5 2 µg/ml, RHD5 binding to coated recFVIII detected
[11] = biological target: human monoclonal anti-C1 domain of Factor VIII inhibitory antibody RHD5; test: competition ELISA: 18B6 at 6.25 µg/ml with RHD5 2 µg/ml, RHD5 binding to coated recFVIII detected
[12] = biological target: human monoclonal anti-C1 domain of Factor VIII inhibitory antibody RHD5; test: competition ELISA: 18B6 at 0.098 µg/ml with RHD5 2 µg/ml, RHD5 binding to coated recFVIII detected
[13] = biological target: human monoclonal anti-C1 domain of Factor VIII inhibitory antibody RHD5; test: competition ELISA: 18B6 at 0.195 µg/ml with RHD5 2 µg/ml, RHD5 binding to coated recFVIII detected
[14] = biological target: human monoclonal anti-C1 domain of Factor VIII inhibitory antibody RHD5; test: competition ELISA: supernatant preincubated with RHD5 (0.6 µg/ml), RHD5 binding to coated recFVIII detected

B1: monoclonal anti-idiotypic antibody 18B6 (antibody, V domains shown)
VH: QVQLQQSGAELAKPGASVKMSCKASGYTFTTYWMHWIKQRPGQDLEWIGYINPTSGYTEYNQNFKDKATLTADKSSSTAYMQLNSLTSEDSAVYFCARSGAYYRYDDAMDSWGQGTSVTVSS
VL: QIVLSQSPAILSASPGEKVTMTCRASSSVSYMNWYQQKPGSSPKPWIYATSNLASGVPARFSGSGSGTSYSLTISRVEAEDAATYYCQQWSSNPPMLTFGAGTKLELK
modifications: mouse IgG1 kappa constant regions
Neutralisation (%) of RHD5 (0.4 µg/ml) inhibitory activity, chromogenic FVIII assay, anti-Id at 0.0002 µg/ml [1]: 0%
Neutralisation (%) of RHD5 (0.4 µg/ml) inhibitory activity, chromogenic FVIII assay, anti-Id at 0.0006 µg/ml [1]: 6.7%
Neutralisation (%) of RHD5 (0.4 µg/ml) inhibitory activity, chromogenic FVIII assay, anti-Id at 0.00183 µg/ml [1]: 8.9%
Neutralisation (%) of RHD5 (0.4 µg/ml) inhibitory activity, chromogenic FVIII assay, anti-Id at 0.0055 µg/ml [1]: 6.7%
Neutralisation (%) of RHD5 (0.4 µg/ml) inhibitory activity, chromogenic FVIII assay, anti-Id at 0.0165 µg/ml [1]: 8.8%
Neutralisation (%) of RHD5 (0.4 µg/ml) inhibitory activity, chromogenic FVIII assay, anti-Id at 0.049 µg/ml [1]: 11%
Neutralisation (%) of RHD5 (0.4 µg/ml) inhibitory activity, chromogenic FVIII assay, anti-Id at 0.148 µg/ml [1]: 27.4%
Neutralisation (%) of RHD5 (0.4 µg/ml) inhibitory activity, chromogenic FVIII assay, anti-Id at 0.44 µg/ml [1]: 54.3%
Neutralisation (%) of RHD5 (0.4 µg/ml) inhibitory activity, chromogenic FVIII assay, anti-Id at 1.33 µg/ml [1]: 81.2%
Neutralisation (%) of RHD5 (0.4 µg/ml) inhibitory activity, chromogenic FVIII assay, anti-Id at 4 µg/ml [1]: 89.5%
Neutralization: functional test (chromogenic FVIII assay, RHD5 1 µg/ml with supernatant, FVIII Kogenate 0.5 U/ml) [1]: 100%
neutralisation of RHD5 inhibitory activity at an equimolar RHD5/18B6 ratio [1]: 50%
Kd [2]: 3.4 nM
koff [2]: 1.45e-05 s⁻¹
kon [2]: 4260 M⁻¹ s⁻¹
inhibition of binding at an equimolar ratio (%) [3]: 92%
molar ratio RHD5/18B6 at 50% inhibition (molar ratio RHD5/18B6) [3]: 2.5
Inhibition of binding (%) [4]: 97.2%
Inhibition of binding (%) [5]: 96.1%
Inhibition of binding (%) [6]: 9.2%
Inhibition of binding (%) [7]: 50.3%
Inhibition of binding (%) [8]: 90.3%
Inhibition of binding (%) [9]: 96.9%
Inhibition of binding (%) [10]: 94.1%
Inhibition of binding (%) [11]: 96.7%
Inhibition of binding (%) [12]: 0%
Inhibition of binding (%) [13]: 0%
Inhibition: Elisa (%) [14]: 93.1%
